Assay: yeast display, Sf9 membrane polyspecificity reagent, FACS + sequencing; frameworks hold sequencing errors
Summary of the method: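 Using colony PCR, genes from sorted yeast display clones were amplified, then sequenced on MiSeq at 2 × 250 and filtered by CDR length. The clones had been stained with 10% biotinylated, detergent-solubilized Sf9 membrane reagent for 1 hour at 4 °C and sorted by FACS into low and high (top ~1%) gates on anti-HA and streptavidin fluorescence. Polyreactivity labels come from the gate of origin.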

Sequence	polyreactivity (PSR sort gate)
QVQLVESGRGLVQAGGSLRLSCAASGRTFRFNAMGWYRQAPGKEREFVAAITSGGGTYYADSVKGRFTISRDNAKNTVYLQMNSLKPEDTAVYYCAAPRQYYLMDYGGQGTQVTVSS	low polyreactivity
QVQLVESGRGLVQAGGSLRLSCAASGRTFYFYAMGWYRQAPGKEREFVAAITSSGVSTYYADSVKGRFTISRDNAKNTVYFQMISQKPEDSAVYYCAADDWDWENDYWGQGTQVTVSS	low polyreactivity
QVQLVESGRGLVQAGGSLRLSCAASGSIFGAYVMGWYRQAPGKERELVAAITRRGGSTYYADSVKGRFTISRDNAKNTVYLQMNSLKPEDTAVYYCAARRGAGDGYWGQGTQVNVSS	high polyreactivity
QVQLVESGRGLVQAGGSLRLSCAASGSIFGGYGMGWYRQAPGKERELVAAITSGSSTYYADSVKGRFTISRDNAKNTVYLQMNSLKPEDTAVYYCAARPYPHSAYEGDYWGRGTQVTVSS	low polyreactivity
QVQLVESGRGLVQAGGSLRLSCAASGSIFVDYTMGWYRQAPGKERELVARITSGGSTYYADSVKGRFTISRDNAKNSVYLQMNSLKPEDTAVYYCAARPYYRYRNSWREQYYYWGQGTQVTVSS	high polyreactivity
QVQLVESGRGLVQAGGSLRLSCAASGSIFWENAMGWYRQAPGKERELVADITIGGSTNYADSVKGRFTISRDNAKNTVYLQMNILKPEDTAVYYCAAYYYWPKYWYWGYDDWGQGTQVTVSS	low polyreactivity
QVQLVESGRGLVQAGGSLRLSCAASGSIFWYYAMGWYRPSPGKETELVAAIRRGGSTTYADSVKGRFTISRDNAKNTVYLQMNSLKPEDTAVYYCAAEPYYWYRGDYWGQGTQVTVSS	high polyreactivity
QVQLVESGRGLVQAGGSLRLSCAASGSTFAWNAMGWYRQAPGKERELVAAINSGDSTYYADSVKGLFTISRDNAKNTVYLQMNSLKPEDTAVYYCATKYRGVWYTRGQTYYYWGQGTQVNVSS	high polyreactivity
QVQLVESGRGLVQAGGSLRLSCAASGSTFPGNAMGWYRQAPGKERELVAAIRDRGTSTYYADSVKGRFTISRDNAKNTVYLQMNSLKPEDTAVYYCAAASSVAKGRWRLYDYWGQGTQVTVSS	high polyreactivity
QVQLVESGRGLVQAGGSLRLSCAASVNIFRGYTMGRYRQAPGTERELVATITWNGVSTFYADSVKGRFTISRDNAKNTVYLQMHSLKPEDTAVYYCAAYYPSHDYSGFWSDTYEYWGQGTQVTVSS	low polyreactivity
QVQLVESGRGLVQAGGSLRLSCAPSGFTFYRNEMGWYRQAPGKERELVAAITFSGGITYYADSVKGRFTISRDNAKNTVYLQMNSLKPEDTAVYYGAAEGVGPARVYQGGEYNYWGQGTQVTVSS	low polyreactivity
QVQLVESGRGLVQAGGSLRLSCAPSGSNFPPNAMGWYRQAPGKEREFVASITSSGGITNYADSVKGRFTISRDNAKNTVYLQMNSLKPEDTAVYFCAAVQTWRWVYARDYWGQGTQVTVSS	high polyreactivity
QVQLVESGRGLVQAGGSLRVSCAASGNTYLYYGMGWYRHAPGKERELVAAITQSGGTTYYADSVKGRFTISRDNAKNTVYFQMNTLIPEDTAVYYFAATRYYYYWYVYDDRGDYWGQGTQVSVSS	low polyreactivity
QVQLVESGRGLVQAGGSLSLSCAASGITFRPYPMGWYRKAPGKERELVAAISRGGSSTYYADSVKGRFTISRDYAKNTVYLQMISLKPEDTAVYYFAARNNKKYDYWGQGTQVTVSS	high polyreactivity
QVQLVESGRGLVQAGRSLRLSCAASGFIFETYPMGWYRQAPGKVRELVAAISRGASTYYADSVKGRFTISRDNAKNTVYLQMNSLTPEDTAVYNCAAQQGISYGTGVSATNPMDYWGQGTHVTVSS	low polyreactivity
QVQLVESGRGLVQAGVSLRLSCAASGFIFKGYAMGWYRQATGKERELVAAITWSGRTYYADSVKGRFTISRDNAKNTVYLKMNSLKPEDTAVFYCAVDRGRGSTYKYDYWGQGTQVNVSS	low polyreactivity
QVQLVESGRGLVQAGVSLRLSCAASGRIFTNNAMGLYRQAPGKERELVAAINVSGGRTYYADSVKGRFTISRENAKNTVYLQMNSLKPEDTAVYYCNKVKETYMDYWGQGTQVTVSS	high polyreactivity
QVQLVESGRGLVQAGVSLRLSCAASGRTFVLYTMGWYRQAPGKERELVAAITKSGGSTYYADSVKGRFTISRDNAKNTVYLQMNSLKPEDTAVYYCAAARRYYTYYREDYYYWGQGTLVTVSS	high polyreactivity
QVQLVESGRGLVQAVGSLRLSSAASGSIFMWYTMGCYRQAPGKERELVAAISKSGGRTYYADSVKGRFTISRDNAKNTVYLQMNSMKPEDTAVYYCAKLYPYDSPVPDGHQFDYWGQGTQVTVSS	high polyreactivity
QVQLVESGRGLVQEGGSLRLSCAASGFTFYGYAMGWYRQAPGKERELVAAINSGGRTYYADSVKGRFTISRDNAKNSVYLQMNSLKPEDTAVYYCAAVSLYTSDYYWGQGTQVTVSS	high polyreactivity
QVQLVESGRRLVQAGGSLRLSCAASGSTFYGYGMGWYRPAPRQERELVAAITGSGDTTYYADSVKGRFTISRDNAKNTVYLQMNSLKPEDTAVYYCNARWHAEYDYWGQGTQVTVSS	low polyreactivity
QVQLVESGRRLVQAGGSLRLSCAASGSTFYGYGMGWYRQAPGKERELVAAITGSGDTTYYADSVKGRFTISRDNAKNTVYLQLNSLKPEDTAVDYCNARWHAEYDYWGQGTQVTVSS	low polyreactivity

Sequence	polyreactivity (PSR sort gate)
QVQLVESGRRLVQAGGSLRLTCAASGSTFTRYAMGWYRQAPGKERELVASISGSGGRTYYADSVKGRFTISRDNAMNTVYLQMNSLKPEDTAVYYCAAKITRRYYPGYLFDYWGQGNQVTVSS	high polyreactivity
QVQLVESGVCLVQAGGSLRLSCASSGLIIPPNAMGWYRQPPGKERELVASITRSGGSTYYADSVKGRFTISRDNAKNTVYVQMNSLTPEDTAVYYCAAYLDTSRYGVLYDYWGQGTQVTVSS	low polyreactivity
QVQLVESGVGIVQARGSLRLSCAASGYTFYRYTMGWYRQSRGNERELVAAINSGGSTNYADSVKGRFTISRDNAKNTVYLQMNSLKPEDTAVYYCAAGDGPWLPRVHYGGYGYWGQGTQVTVSS	high polyreactivity
QVQLVESGVGKVQAGGSLRLSCAASGSTIGSNAMGWYRQAPGKESELVATINWRGGSTYADSVKGRFTLSRDNAKNTVYLQINSLKPEDTAVYYCKKVRGAFYSHLFDYWGQGTEVTVSS	high polyreactivity
QVQLVESGVGLFQAGGSLRLSCAASGITFYSYAMGWYRQAPGKESQLVATISRSGSTYYADSVKGRFTISRDNAKNSVYLQMNSLKPEDTAVYYCAAYYAVRGATYRYGYWGQGTQVTVSS	high polyreactivity
QVQLVESGVGLVHAGGSLRLSCAASGFTFKENAMGWYRQAPGKERELVAAISSTGGSTYYADSVKGRFTISRDIAKNTVYLQINRLKPEDTAVYYCAASTYWYDGDYWGQGTQVTVSS	high polyreactivity
QVQLVESGVGLVKAGGILRLSCAASGFTFASNVMGWSRQAPGKERELVAAITSGASTNYADSVKGRFTISRDNAKNTVYLQMNSLKPEDTAVYYCAAGRQWYVFYEFDYWGQGTQVTVSS	high polyreactivity
QVQLVESGVGLVQAAGSLRLSCAASGFIFWVNAMGWYRQAPGKEREFVAAIRSSGGNTYYADSVKGRFTISRDNAKNTVYLQMNSLKPEDTAVYYCAADSVIVTYESDYWGQGTQVTVSS	low polyreactivity
QVQLVESGVGLVQAGCSLRLSCAASGFTNAMGWYRQAPGKERELVAAISYSGDSTNYADSLKGRFTISRDNAKNTVYLQMNSMKPVDTAVYYCNASSPYDYDWGQGTQVTVSS	low polyreactivity
QVQLVESGVGLVQAGCSLRLSCAASGSTFVLNAMGWYLQAAGKERELVAAISRGGASTYSADSVKGRFTISRDYAKNTVYLQMNSLKPEDTAVYYCNASGYGPGVVIYLVVYDYWGQGTQVTVSS	low polyreactivity
QVQLVESGVGLVQAGGILRLSCAASGFIFALNAMGWYRQAPGKERELVATIDSTSGSTYYADSVKGRFTISRDNAKNTVYLEMNSLKPEDTAVYYCAVVHAQSAPMDYWGQGTQVTVSS	low polyreactivity
QVQLVESGVGLVQAGGILSLSCAASGLTFGAYTMGWYRQAPGKERELVAAITSSGGRTYYADSVKGRFTISRDNAKITFYLQMNSLKPEDTAVFYCNARIFRSPNPYDYWGQGTQVSVSS	high polyreactivity
QVQLVESGVGLVQAGGRLLLSCAASRSIFTRYTMGWYSQAPGKEWELVATISSRGDGTFYADSVKGRFTISRDNAKNTFYLQMNSLKPEDTAVYYCAARYRRVHSGYGYWGQVTQVTVSS	high polyreactivity
QVQLVESGVGLVQAGGRLRLSCAASGRTFYYYAMGWYRQAAAKERELVAAITTDGGNTFYADSVKGRFTISRDNAKNSVYIQMNSLKPEDSAVYYWAKSDTEGYYWDVPVTFDYGGQGTQVTVSS	low polyreactivity
QVQLVESGVGLVQAGGSHRLSCAASGFTFLINAMGWYRQEPWKERELVAAIRSGGSTNYADSVKGRFTISRDNAKNTVYLQMNSLKPEETAVYYCAARRYYPDKYRYGYWGQGTQVTVSS	high polyreactivity
QVQLVESGVGLVQAGGSLRLICAASGRTFYWYAMGWYRQAPRKERELVATITRGGRTYYADSVKGRFTISRDNAKNTVYLQMNSLKPEDTAVYDCATVSIAGPRYDYWGQGTQVTVSS	high polyreactivity
QVQLVESGVGLVQAGGSLRLICAASGSIFWSNAMGWYTQAPGKERELVAAISSGGSTYADSVKGRFTISRDNAKNTVYLQMNSLKPEDTAVYYCNADVLYGDSYRGGYWGQGTQVTVSS	low polyreactivity
QVQLVESGVGLVQAGGSLRLICAASGSIFYPYTMGWYRQAPGKERELVAAITINGGSTYYADSVKGRFTISRDNAKNTVYLQMNSLKPEDTAVYYCAAYYASPRHGYWGQGTQVTVSS	low polyreactivity
QVQLVESGVGLVQAGGSLRLRCAASGSTFIVYALRWSRQAPGKERELVAAISWNGGRTYYADSVKGRFTISRDNAKKTVYLQMNSLKPEDTAVYYCPATLYNTEDDYWGQGTQVTLSS	low polyreactivity
QVQLVESGVGLVQAGGSLRLSCAASGFIFCGYAMVWYRHAPGKERELVAAISWSGDNTYYADSVKGRFTISRDNAKNTVYFQMNSLKPEDTAVYYCAADSYGQEYDYWGQGTQVSVSS	low polyreactivity
QVQLVESGVGLVQAGGSLRLSCAASGFIFDHNAMGWYRQAPGKERELVAAITRSGGSTYYADSVKGRFTISRDNAKNTVYLQMNSLKPEDTAVYYCAADLSYRGATRGDYYWGQGTQVTVSS	low polyreactivity
